# Source: publication PMC2034677 (Molecular microbiology, 2002)
# B1: GST–endoE fusion protein (recombinant bacteriophage K1E endosialidase, wild type) (enzyme, UniProt P49714 1-706, looked up)
# chain: MIQRLGSSLVKFKSKIAGAIWRNLDDKLTEVVSLKDFGAKGDGKTNDQDAVNAAMASGKRIDGAGATYKVSSLPDMERFYNTRFVWERLAGQPLYYVSKGFINGELYKITDNPYYNAWPQDKAFVYENVIYAPYMGSDRHGVSRLHVSWVKSGDDGQTWSTPEWLTDMHPDYPTVNYHCMSMGVCRNRLFAMIETRTLAKNELTNCALWDRPMSRSLHLTGGITKAANQRYATIHVPDHGLFVGDFVNFSNSAVTGVSGDMKVATVIDKDNFTVLTPNQQTSDLNNAGKNWHMGTSFHKSPWRKTDLGLIPRVTEVHSFATIDNNGFVMGYHQGDVAPREVGLFYFPDAFNSPSNYVRRQIPSEYEPDAAEPCIKYYDGVLYLITRGTRGDRLGSSLHRSRDIGQTWESLRFPHNVHHTTLPFAKVGDDLIMFGSERAENEWEAGAPDDRYKASYPRTFYARLNVNNWNADDIEWVNITDQIYQGDIVNSSVGVGSVVVKDSFIYYIFGGENHFNPMTYGDNKDKDPFKGHGHPTDIYCYKMQIANDNRVSRKFTYGATPGQAIPTFMGTDGIRNIPAPLYFSDNIVTEDTKVGHLTLKASTSANIRSEMQMEGEYGFIGKSVPKDKPTGQRLIICGGEGTSSSSGAQITLHGSNSSNAKRITYNGNEHLFQGAPIMPAVDNQFAAGGPSNRFTTIYLGSDPVTTS
# Molecular target: the molecule itself
# Assay: native gel or EMSA
protein,measurement,value
B1,stoichiometry N,3
